From US20160176984A1 (published 2016)
Where a chain is given by its changes, count along the chain named.

B1: ABEFs0101 (designed binder)
chain: EPKSCDKTHTCPPCPAPELLGGPSVFLFPPKPKDTLMISRTPEVTCVVVDVSHEDPEVKFNWYVDGVEVHNAKTKPREEQYNSTYRVVSVLTVLHQDWLNGKEYKCKVSNKALPAPIEKTISKAKGQPREPQVYTLPPSRDEYLHGDVSLTCLVKGFYPSDIAVEWESNGQPENNYKTTPPVLDSDGSFFLYSKLTVARYSPSMWRWGHGNVFSCSVMHEALHNHYTQKSLSLSPGK
notes: The EF loop is given with 13 residues under 'AA198ff'
B2: H10-03-6 (designed binder)
chain: B1 chain with A198P, Y200H, P202A, S203R, G208A
notes: Soluble Fcab; The EF loop is given with 13 residues under 'AA198ff'; also called H10-03-6 clone
B3: human soluble CD64 (receptor, UniProt P12314 16-288, looked up)
chain: QVDTTKAVITLQPPWVSVFQEETVTLHCEVLHLPGSSSTQWFLNGTATQTSTPSYRITSASVNDSGEYRCQRGLSGRSDPIQLEIHRGWLLLQVSSRVFTEGEPLALRCHAWKDKLVYNVLYYRNGKAFKFFHWNSNLTILKTNISHNGTYHCSGMGKHRYTSAGISVTVKELFPAPVLNASVTSPLLEGNLVTLSCETKLLLQRPGLQLYFSFYMGSKTLRGRNTSSEYQILTARREDSGLYWCEAATEDGNVLKRSPELELQVLGLQLPTP
notes: also called CD64 (R&D Systems)

Legend:
[1] = biological target: T1, Her-2 on Her-2 over-expressing human breast cancer cell lines SKBR3 and Calu-3 (human, UniProt P04626 23-1255); assay: cell-based or functional assay
[2] = biological target: T1, Her-2 on Her-2 over-expressing human …; assay: FACS on SKBR3 cells, anti-human Fc-PE detection
Experimental: (§1) Antigen binding was also determined by SPR. Biacore CM5 chips were coated with different amounts of human soluble Her-2 followed by addition of increasing concentrations of Fcabs. […] Antigen binding was also assessed by FACS using the Her-2 over-expressing human breast cancer cell lines SKBR3 and Calu-3. 1×10⁵ cells were incubated with increasing concentrations of Fcabs for 60 minutes on ice. Then, unbound antibodies were removed by centrifugation and washing. Cell bound Fcabs were detected by incubation with anti-human Fc specific antibodies conjugated to phycoerythrin (Sigma) for 60 minutes on ice. After washing the cells, the intensity of fluorescence on the cell surface was measured in a FACS Calibur instrument (Beckton Dickinson).

[3] = biological target: T2, Human soluble Her-2 (Bender Med Systems, Austria) (human, UniProt P04626 23-652, limits assumed); assay: ELISA, human soluble Her-2 coated at 2 ug/ml, anti-Fc CH2-HRP detection
T2 construct: given only as 'human soluble Her-2'; It was biotinylated (sulfo-LC-LC-biotin) for the yeast FACS selections; also called recombinant antigen Her2 (Bendermedsystems); Her2-biotin
Experimental: Human soluble Her-2 (Bender Med Systems, Austria) was coated to plastic at 2 μg/ml. After washing and blocking unspecific binding sites, increasing concentrations of Fcabs were added. To detect Her-2 bound Fcabs, anti-Fc CH2 domain specific monoclonal antibodies which were conjugated to horse radish peroxidase (Serotec) were added.

[4] = biological target: T2, Human soluble Her-2 (Bender Med …); assay: assay not stated; told under affinity maturation and FACS selection with Her2
[5] = biological target: T2, Human soluble Her-2 (Bender Med …); assay: SPR (Biacore), human soluble Her-2 on CM5 chip, Fcab as analyte
Experimental: as §1

[6] = biological target: T3, wild type Fcab (human, UniProt P0DOX5 218-449 = IgG part); assay: SPR (Biacore), Fcab captured on Protein A chip, human soluble CD64 at 5 ug/ml as analyte
T3 construct: also called Fcab wt; wtFcab

[7] = biological target: T4, Fcab wt expressed on yeast (human, UniProt P0DOX5 218-449 = IgG part); assay: FACS of yeast-displayed Fcab wt, CD64 staining
T4 construct: also called non-randomized Fc fragments (Fcab wt) expressed on yeast; not shown: Aga2 display fusion partner of the pYD1-derived vector

Row | Binder | SKBR3 cell killing (ADCC with human NK cells, 7-AAD/CFSE FACS), EC50 [1] [nM] | EC50 [2] [nM] | EC50 [3] [nM] | EC50 [4] [nM] | Kd [5] [nM] | binding result [6] | binding result [7]
1 | B1 | 1 | 5.2 | 16.1 | – | – | – | –
2 | B2 | 1.1 | 10.3 | 4.8 | 18.9 | 8.6 | – | –
3 | B3 | – | – | – | – | – | binds | binds
